Publication PMC5666114

Molecular target: Anbu-1 protein from Pseudomonas aeruginosa (Pa-Anbu), wild type (Pseudomonas aeruginosa PAO1)
Experiment: SEC-MALS; static light scattering after Superdex S200 10/300 GL; 100 µl protein at 0.5, 1 or 2 mg/ml; 30 mM MOPS/NaOH pH 7.2, 150 mM NaCl; three independent experiments

stoichiometry N: 12
Substance: Anbu-1 protein from Pseudomonas aeruginosa (Pa-Anbu), wild type (natural protein)
